Measured values as given in paper PMC5094776, “The miR165/166 Mediated Regulatory Module Plays Critical Roles in ABA Homeostasis and Response in Arabidopsis thaliana”.

T1: GST-PHB (PHABULOSA, HD-ZIPIII) (Arabidopsis thaliana, UniProt O04291 1-852)
T1 sequence: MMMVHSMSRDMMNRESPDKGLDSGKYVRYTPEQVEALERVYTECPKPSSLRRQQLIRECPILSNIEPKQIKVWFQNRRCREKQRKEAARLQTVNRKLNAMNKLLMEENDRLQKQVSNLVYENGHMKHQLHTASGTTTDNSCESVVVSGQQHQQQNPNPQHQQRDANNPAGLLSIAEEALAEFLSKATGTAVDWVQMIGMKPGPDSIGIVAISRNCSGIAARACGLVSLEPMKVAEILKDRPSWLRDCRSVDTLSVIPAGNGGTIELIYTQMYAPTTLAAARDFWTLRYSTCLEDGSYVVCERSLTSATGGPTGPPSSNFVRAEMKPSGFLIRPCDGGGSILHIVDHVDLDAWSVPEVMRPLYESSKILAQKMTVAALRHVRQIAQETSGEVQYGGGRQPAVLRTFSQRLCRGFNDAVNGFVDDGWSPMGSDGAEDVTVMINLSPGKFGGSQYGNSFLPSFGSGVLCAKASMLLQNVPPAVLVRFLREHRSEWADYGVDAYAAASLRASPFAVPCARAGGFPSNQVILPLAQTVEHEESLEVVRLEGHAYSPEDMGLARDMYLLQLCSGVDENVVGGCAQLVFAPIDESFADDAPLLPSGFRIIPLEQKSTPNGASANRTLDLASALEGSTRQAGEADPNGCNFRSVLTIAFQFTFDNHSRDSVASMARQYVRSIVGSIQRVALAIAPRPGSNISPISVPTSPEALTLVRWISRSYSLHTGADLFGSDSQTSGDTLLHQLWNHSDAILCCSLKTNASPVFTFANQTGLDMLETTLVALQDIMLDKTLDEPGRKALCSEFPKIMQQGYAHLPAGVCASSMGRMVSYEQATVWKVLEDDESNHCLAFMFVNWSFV

B1: ABI4 binding motif probe (dsDNA)
DNA 1: TTAGCCGTTATGTAATGATTTATTCTAGTTTCA
DNA 2: TGAAACTAGAATAAATCATTACATAACGGCTAA
B2: BG1 binding motif probe (dsDNA)
DNA 1: AGAAGTTTTGGTAATGATACTGAAACACATTTC
DNA 2: GAAATGTGTTTCAGTATCATTACCAAAACTTCT

Target: T1, GST-PHB (PHABULOSA, HD-ZIPIII)
Test: EMSA; unlabeled self-competitor at 10x and 100x also tested (gel only); 20 mM Tris-HCl pH 7.5, 300 mM NaCl, 5 mM MgCl2, 0.1% NP-40, 0.5 mM DTT, 20-60 min, room temperature; 6% PAGE in Tris-glycine
Conditions: protein: recombinant; tags: GST (N-terminal, pGEX4T-1); chain copies: 2; label: 32P; blunt

Binder	binding result
B1	binds
B2	binds
